The text below walks through data of patent publication US20100136573A1, “DIAGNOSING NEURODEGENERATIVE DISEASES” (priority 2007, published 2010).

Data set [1] deals with differentiated M17 neuroblastoma cells. In words: Toxicity assay (LDH release, activated caspase-3 staining). The class given is cell-based. On the procedure: M17 neuroblastoma cells, seeded at 2.5×10^3 cells per well in 24-well plates, were grown in Neurobasal A/B27 medium containing Glutamax (Invitrogen) and 10 μM retinoic acid (Sigma) to induce differentiation. Seven days later, cells were transfected with 0.2 μg of expression vector for 72 hours. The medium was collected, and a LDH assay (Promega) was used to measure LDH levels as an indicator of toxicity. Then, cells were fixed, and immunofluorescent staining was done using an antibody against activated caspase-3 (1:250; Cell signaling) and the nuclear marker, bisbenzimide (Hoechst 33258).
(§1) The cultured HEK293 and differentiated M17 cells were fixed with 4% paraformaldehyde in phosphate-buffered saline (PBS) at 4° C. for 15 minutes and permeabilized with PBS-0.5% Triton X-100 for 10 minutes. After blocking with 5% BSA for 1 hour at 37° C., the cells were incubated overnight at 4° C. with mouse monoclonal HA antibody (1:1000, Roche Applied Science), rabbit polyclonal activated caspase-3 antibody (1:250, Cell Signaling), rabbit polyclonal anti-pTDP-43 (which detects phosphorylated S409/S410; 1:1000, COSMO BIO CO., LTD), mouse monoclonal Flag antibody (1:1000, Sigma), rabbit polyclonal M2085 (1:1000), or rabbit polyclonal M2079 (1:1000). After washing, cells were incubated with the Alexa 568-conjugated goat anti-mouse IgG secondary antibody (1:1000, Molecular Probes) or anti-rabbit IgG secondary antibody (1:500, Molecular Probes) at 37° C. for 2 hours. Finally, Hoechst 33258 (1 μg/mL, Invitrogen) was used to stain the nuclei. Images were obtained on a Zeiss LSM 510 META confocal microscope.

Data set [2] relates to HEK293 cells. Put plainly: Inclusion formation and distribution of GFP-TDP-43 constructs, confocal microscopy. The data set is classed as cell-based. Particulars: for cellular distribution / inclusion formation: HEK293, confocal fluorescence microscopy; for cells with compact cytoplasmic inclusions: HEK293, 48 hours after transfection. The protocol: HEK293 cells, grown on glass coverslips, were transfected with 0.3 μg of expression vector (GFP, GFP-TDP-43, GFP-TDP-43-caspase-resistant, GFP-TDP-35, GFP-TDP-25, or GFP-TDP-ΔNR1) by using Lipofectamine 2000 (Invitrogen) according to the manufacturer's instructions then subjected to immunofluorescence analysis 48 hours later. To determine if the cytoplasmic inclusion were insoluble, some cells were treated with 0.2% Triton X-100 prior to fixation, in order to remove soluble protein. To determine if the formation of inclusion was aggresome-dependent, some cells were treated with 1 μM nocodazole (Sigma) for 24 hours after 6 hours of transfection. Finally, to examine if inclusions were ubiquitinated, cells were cotransfected with 0.3 μg of a TDP-43 construct and 0.5 μg HA-ubiquitin, then subjected to immunofluorescence analysis 72 hours later.
as §1

Data set [3] concerns the target T1, Recombinant human GST-TDP43 (Homo sapiens, UniProt Q13148).
T1 construct: Full-length or caspase-3-treated recombinant GST-TDP43 (0.5 μg) was separated by 10% SDS-PAGE
Put plainly: In vitro caspase-3 assay. The class given is biochemical. Particulars: 2 units, 2 and 4 hours, Coomassie staining. On the procedure:
Recombinant human GST-TDP43 (2 μg) was incubated with active human recombinant caspase-3 (2 units, CHEMICON International, Inc., Temecula, Calif.) in reaction buffer containing 100 mM NaCl, 50 mM HEPES, 10 mM DTT, 1 mM EDTA, 10% glycerol, 0.1% CHAPS, pH 7.4) at 37° C. for 2 hours or 4 hours, respectively. Cleavage reactions were terminated by addition of 2×SDS loading buffer. Full-length or caspase-3-treated recombinant GST-TDP43 (0.5 μg) was separated by 10% SDS-PAGE and stained with Coomassie blue.

Data set [4] deals with T2, Flag-TDP-43 (Homo sapiens, UniProt Q13148).
T2 construct: the exon skipping activity in cells overexpressing full-length TDP-43 was examined; expressed in transfected cells; host or cells: HeLa cells
T2 sequence (Q13148 whole entry): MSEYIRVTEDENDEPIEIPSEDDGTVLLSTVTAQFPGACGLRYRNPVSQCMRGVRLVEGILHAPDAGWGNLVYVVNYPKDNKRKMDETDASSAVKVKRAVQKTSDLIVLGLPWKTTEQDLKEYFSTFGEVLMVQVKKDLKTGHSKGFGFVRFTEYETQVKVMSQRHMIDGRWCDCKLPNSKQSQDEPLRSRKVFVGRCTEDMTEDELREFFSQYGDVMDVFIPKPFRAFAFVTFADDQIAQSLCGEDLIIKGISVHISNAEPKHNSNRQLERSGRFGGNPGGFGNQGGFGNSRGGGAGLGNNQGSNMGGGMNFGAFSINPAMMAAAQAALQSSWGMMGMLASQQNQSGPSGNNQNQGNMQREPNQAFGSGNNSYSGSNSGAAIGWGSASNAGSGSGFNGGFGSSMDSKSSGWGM
Put plainly: Co-immunoprecipitation with Flag-TDP-43. Particulars: HeLa cells, probing for GFP. The class given is binding. On the procedure: (§2) For co-immunoprecipitation studies, HeLa cells were transfected with 1 or 2 μg of each plasmid. Cells were harvested 48 hours later using Co-IP buffer (50 mM Tris-HCl, pH 7.4, 1 M NaCl, 1% Triton X-100, 5 mM EDTA) containing PMSF as well as protease and phosphatase inhibitors. The lysates were sonicated and centrifuged at 16,000 g for 20 minutes. The protein concentration of supernatants was determined by BCA assay (Thermo Scientific). Supernatant containing 500 μg of total protein was combined with Anti-Flag M2 agarose (Sigma) and incubated overnight at 4° C. with gentle shaking. The agarose was pelleted by centrifugation at 2,500 g for 5 minutes and washed with Co-IP buffer 6 times. Captured protein was eluted from the beads using loading buffer and resolved by SDS-PAGE for Western blot analysis.

Data set [5] relates to TDP-43 exon 9 skipping activity. Put plainly: CFTR mini-gene splicing assay. The class given is cell-based. On the procedure: The CFTR mini-gene splicing assay was conducted as described elsewhere (Pagani et al., J. Biol. Chem., 275(28):21041-21047 (2000) and Ayala et al., FEBS Lett., 580(5):1339-1344 (2006)). In brief, Hela cells were co-transfected with 1 μg of minigene construct and 1 μg of GFP-fusion protein expression vector. […] Then, 2 μg of total RNA was used to synthesize cDNA using the SuperScript III First-Strand Synthesis System (Invitrogen). For the PCR, 2 μL of cDNA was used in a 20 μL of reaction according to the manufacturer's protocol for Taq PCR Core Kit (Qiagen). The amplification conditions consisted of an initial denaturation step at 94° C. for 3 minutes, followed by 30 cycles of 94° C. for 30 seconds, 62° C. for 60 seconds, and 72° C. for 90 seconds.

The target of data set [6] is T3, hnRNPA2 (Homo sapiens, UniProt P22626).
T3 construct: expressed in transfected cells; host or cells: HeLa cells
T3 sequence (P22626 1-341 isoform P22626-2, species assumed): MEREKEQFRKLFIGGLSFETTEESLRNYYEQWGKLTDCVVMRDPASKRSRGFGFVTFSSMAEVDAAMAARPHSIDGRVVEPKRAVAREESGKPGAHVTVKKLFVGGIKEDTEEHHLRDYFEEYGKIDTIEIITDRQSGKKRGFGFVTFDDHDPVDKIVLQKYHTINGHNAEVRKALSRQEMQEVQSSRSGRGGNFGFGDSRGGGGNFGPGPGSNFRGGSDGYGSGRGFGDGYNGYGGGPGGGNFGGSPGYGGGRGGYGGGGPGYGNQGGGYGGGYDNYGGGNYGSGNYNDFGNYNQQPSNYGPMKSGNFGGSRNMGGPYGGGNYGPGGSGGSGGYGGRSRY
Put plainly: Co-immunoprecipitation with Flag-tagged hnRNPA2. Particulars: HeLa cells, probing for GFP. The data set is classed as binding. The protocol:
as §2

[7] abbreviates: medium collected 72 hours after transfection.

T1 sequence (Q13148 whole entry): as the sequence (Q13148 whole entry) above

B1: GFP-TDP-ΔNR1: GFP-tagged C-terminal fragment (aa 193-414) lacking the N-terminus and the RRMI (protein, UniProt Q13148 193-414, looked up, fragment)
chain: VFVGRCTEDMTEDELREFFSQYGDVMDVFIPKPFRAFAFVTFADDQIAQSLCGEDLIIKGISVHISNAEPKHNSNRQLERSGRFGGNPGGFGNQGGFGNSRGGGAGLGNNQGSNMGGGMNFGAFSINPAMMAAAQAALQSSWGMMGMLASQQNQSGPSGNNQNQGNMQREPNQAFGSGNNSYSGSNSGAAIGWGSASNAGSGSGFNGGFGSSMDSKSSGWGM
modifications: GFP tag
notes: GFP-tagged C-terminal fragment (aa 193-414) lacking the N-terminus and the RRMI
Turning to B1, the “LDH levels compared to cells expressing only GFP” value in data set [1] (setting [7]) is “no different”. In addition, in data set [2], the cellular distribution result is “diffuse cytoplasmic and nuclear immunoreactivity”; the inclusion formation result was “no detectable inclusions”.

B2: caspase-3: active human recombinant caspase-3 (CHEMICON) (protein)
chain: SGISLDNSYKMDYPEMGLCIIINNKNFHKSTGMTSRSGTDVDAANLRETFRNLKYEVRNKNDLTREEIVELMRDVSKEDHSKRSSFVCVLLSHGEEGIIFGTNGPVDLKKITNFFRGDRCRSLTGKPKLFIIQACRGTELDCGIETDSGVDDDMACHKIPVEADFLYAYSTAPGYYSWRNSKDGSWFIQSLCAMLKQYADKLEFMHILTRVNRKVATEFESFSFDATFHAKKQIPCIVSMLTKELYFYH
Regarding B2, the “cleavage of recombinant GST-tagged TDP-43” value in data set [3] is “three distinct fragments of approximately 42, 35, and 25 kD”.

B3: GFP-TDP-35: GFP-tagged 35 kDa (aa 90-414) C-terminal TDP-43 fragment (protein, UniProt Q13148 90-414, looked up, fragment)
chain: ASSAVKVKRAVQKTSDLIVLGLPWKTTEQDLKEYFSTFGEVLMVQVKKDLKTGHSKGFGFVRFTEYETQVKVMSQRHMIDGRWCDCKLPNSKQSQDEPLRSRKVFVGRCTEDMTEDELREFFSQYGDVMDVFIPKPFRAFAFVTFADDQIAQSLCGEDLIIKGISVHISNAEPKHNSNRQLERSGRFGGNPGGFGNQGGFGNSRGGGAGLGNNQGSNMGGGMNFGAFSINPAMMAAAQAALQSSWGMMGMLASQQNQSGPSGNNQNQGNMQREPNQAFGSGNNSYSGSNSGAAIGWGSASNAGSGSGFNGGFGSSMDSKSSGWGM
modifications: GFP tag
notes: GFP-tagged 35 kDa (aa 90-414) C-terminal TDP-43 fragment
With B3, in data set [2], the “cells with compact cytoplasmic inclusions” value is ~25 % of cells; the cellular distribution result is “cytoplasmic and nuclear distribution”.

B4: GFP-TDP-25: GFP-tagged 25 kDa (aa 220-414) C-terminal TDP-43 fragment (protein)
chain: VFIPKPFRAFAFVTFADDQIAQSLCGEDLIIKGISVHISNAEPKHNSNRQLERSGRFGGNPGGFGNQGGFGNSRGGGAGLGNNQGSNMGGGMNFGAFSINPAMMAAAQAALQSSWGMMGMLASQQNQSGPSGNNQNQGNMQREPNQAFGSGNNSYSGSNSGAAIGWGSASNAGSGSGFNGGFGSSMDSKSSGWGM
modifications: left off: large carriers
notes: GFP-tagged 25 kDa (aa 220-414) C-terminal TDP-43 fragment
Take B4: the “binding to Flag-TDP-43” value in data set [4] was “only weakly interacted”. Besides, the “CFTR exon 9 exclusion (endogenous TDP-43 background)” value in data set [5] (HeLa cells cotransfected with CFTR minigene, RT-PCR, compared to GFP) is on record as “did not differ”. Further, in data set [5] (cotransfected with CFTR mini-gene and Flag-TDP-43), the “exon skipping activity in cells overexpressing Flag-TDP-43” value is given as “did not reduce”. Also, in data set [1] (setting [7]), the “LDH release compared to cells transfected with full-length or caspase-resistant TDP-43” value is “significantly higher”. Besides, the “inclusion-positive cells positive for fragmented nuclei and activated caspase-3” value in data set [1] (quantitative analysis, Hoechst and activated caspase-3 staining) is reported as approximately 50%. In addition, the “binding to hnRNPA2” value in data set [6] was “interact with hnRNPA2”. Also, in data set [2], the “cells with compact cytoplasmic inclusions” value was ~75 % of cells; the cellular distribution result was “cytoplasmic and nuclear distribution”. Also, the “nuclear localization of Flag-TDP-43” value in data set [2] (HEK293 co-transfected with Flag-TDP-43) is given as “not appreciably altered”.

B5: GFP-TDP-25S409A/S410A: mutant GFP-TDP-25 incapable of being phosphorylated at S409/S410 (protein)
chain: VFIPKPFRAFAFVTFADDQIAQSLCGEDLIIKGISVHISNAEPKHNSNRQLERSGRFGGNPGGFGNQGGFGNSRGGGAGLGNNQGSNMGGGMNFGAFSINPAMMAAAQAALQSSWGMMGMLASQQNQSGPSGNNQNQGNMQREPNQAFGSGNNSYSGSNSGAAIGWGSASNAGSGSGFNGGFGSSMDSKAAGWGM
modifications: left off: large carriers
notes: mutant GFP-TDP-25 incapable of being phosphorylated at S409/S410
Consider B5, for which, in data set [1] (setting [7]), the “LDH release compared to cells transfected with full-length or caspase-resistant TDP-43” value is given as “significantly higher”. The inclusion formation result in data set [2] is on record as “formed cytoplasmic inclusions”.
